B1: C12E9 (antibody, V domains shown)
VH: QVQLVQSGAEVKKPGSSVKVSCKASGGTFSSYAISWVRQAPGQGLEWMGGIIPIFGTASYAQKFQGRVTITADESTSTAYMELSSLRSEDTAVYYCARGSVGLGGDCYQCGYYFDYWGQGTLVTVSS
VL: not shown
B2: C93D1 (antibody, V domains shown)
VH: QVQLVESGGGVVQPGRSLRLSCAASGFTFSNYGMHWVRQAPGKGLEWVAVISYDGSNKYYADSVKGRFTISRDNSKNTLYLQMNSLRAEDTAVYYCAKGSYFHSNYWDYFDYWGQGTLVTVSS
VL: not shown
B3: C81B10 (antibody, V domains shown)
VH: QLQLQESGPGLVKPSQTLSLTCTVSGGSISSGDYYWSWIRQPPGKGLEWIGYIYYSGSTYYNPSLKSRVTISVDTSKNQFSLKLSSVTAADTAVYYCARVRGTYYYVSGSYYPRPLYYYYMDVWGKGTTVTVSS
VL: not shown
B4: C163E5 (antibody, V domains shown)
VH: QVQLQESGPGLVKPSETLSLTCTVSGASIRSFHWSWIRQPAGKGLEWIGRLLTTGSTNYNRSLKSRVTMSVDTSKNQFSLKLSSVTAADTAVYYCSRGTEMNMEVPGVVTGSEFFDYWGQGTLVTVSS
VL: EIVLTQSPATLSLSPGERATLSCRASQSVSSYLAWYQRKPGQAPRLLIYDASNRATGIPARFSGSGSGTDFTLTISSLEPEDFAVYYCQQRRNWPETFGQGTKLEIK
B5: C12D1 (antibody, V domains shown)
VH: EVQLVQSGAEVIKPGESLKISCKGSGYSFTSYWIGWVRQMPGKGLEWMGIIYPGDSDTRYSPSFQGQVTISADKSISTAYLQWSSLKASDTAIYYCARLGGSVTNIEFIDYWGQGTLVTVSS
VL: not shown
B6: G32Q2 (antibody, V domains shown)
VH: EVQLLESGGGLVQPGGSLRLSCAASGFTFSNYAMSWVRQAPGKGLEWVSAISGSGSTTYYADSVKGRFTISRDNSKNTLFLQVNSLRAEDTAVYYCAKGERIIMMVVLTLFDYWGQGTLVTVSS
VL: QSVLTQPPSVSAAPGQKVTISCPGSSSNIGKNYVSWYQQLPGTAPKLLIYDNNKRPSGIPDRFTGSKSGTSATLDITGLQTGDEADYYCGTWDSSLSAGWVFGGGTKLTVL
B7: C81G11 (antibody, V domains shown)
VH: QVQLQESGPGLVKPSGTLSLTCAVSGGSISSSNWWSWVRQPPGKGLEWIGEIYHSGNTNYNPSLTSRVTLSVDKSKNQFSLKLSSVTAADTALYYCAGRFCGSTSCPNWFDPWGQGTLVTVSS
VL: QSALTQPASVSGSPGQSITISCTGTSSDVGSYNLVSWYQQHPGKAPKLMIYEGSKRPSGVSNRFSGSKSGNTASLTISGLQAEDEADYYCCSYAGSSTWVFGGGTKLTVL
B8: C12D6 (antibody, V domains shown)
VH: QLQLQETGPGLVKPSGTLSLTCAVSGDSISSSDWWTWVRQPPGKGLEWIGEIYHSGSTNYNPSLKSRVTISVDKSKNQFSLKLSSVTAADTAVYYCARRGRAASERGTGNFDYWGQGTLVTVSS
VL: B7 VL with G53V
B9: C12J11 (antibody, V domains shown)
VH: QVQLQESGPGLVKPSGTLSLTCAVSGGSISSSNWWSWVRQPPGKGLEWIGEIYHSGSTNYNPSLKSRVTISVDKSKNQFSLKLSSVTAADTAVYYCAIRASGYYNWFDPWGQGTLVTVSS
VL: B7 VL with C91Y
B10: C81A3 (antibody, V domains shown)
VH: QVQLQESGPGLVKPSGTLSLTCAVSGGSISSSNWWSWVRQPPGKGLEWIGEIYHSGSTNYNPSLKSRVTISVDKSKNQFSLKLSSVTAADTAVYYCARRYCSGGSCSGFDYWGQGTLVTVSS
VL: B7 VL with Q40H, S96F
B11: C12I11 (antibody, V domains shown)
VH: QVQLQESGPGLVKPSGTLSLTCAISGGSISSSNWWSWVRQPPGKGLEWIGEIYHSGSTNYNPSLKSRVTISVDKSKNQFSLKLSSVTAADTAVYYCARGALVPAARLNAFDIWGQGTMVTVSS
VL: B7 VL with W99Y, G103T, L107V
B12: C12I5 (antibody, V domains shown)
VH: B9 VH with I98R, R99G, A100W, S101G, G102S, Y103S, Y104S, N105Y
VL: B7 VL
B13: C29C2 (antibody, V domains shown)
VH: EVQLVQSGAEVKKPGESLKISCKGSGYSFTSYWIGWVRQMPGKGLEWMGIIYPGDSDTRYSPSFQGQVTISADKSISTAYLQWSSLKASDTAMYYCARLPVSTHPLYYYFGMDVWGQGTTVTVSS
VL: not shown
B14: C81G9 (antibody, V domains shown)
VH: EVQLVESGGGLVQPGGSLRLSCAASGFTFSSYSVNWVRQAPGKGLEWVSYISSSSLTIYYADSVKGRFIISRDNAKNSLYLQMNSLRDEDTAVYHCAREGPSSSWFSYYYMDVWGKGTTVTVSS
VL: QSALTQPASVSGSPGQSITISCTGTSSDVGSYNLVSWYQQHPGKAPKLMIYEGSKRPSGVSNRFSGSKSGNTASLTISGLQAEDEAEYYCCSYAGSSTSPYVFGTGTKVTAL
B15: C12B10 (antibody, V domains shown)
VH: EVQLVESGGGLVQPGGSLRLSCAASGFTFSSYAMHWVRQAPGKGLEYVSAINSYGGSTYYANSVKGRFTISRDNSKNTLYLQMGSLRAEDMAVYYCAREVQGVATMDGAFDIWGQGTMVTVSS
VL: SYELTQPPSVSVAPGKTARITCGGNNIGSKSVHWYQQKPGQAPVLVIYYDSDRPSGIPERFSGSNSGNTATLTISRVEAGDEADYYCQVWDSSSDPHWVFGGGTKLTVL
B16: C12C6 (antibody, V domains shown)
VH: QVQLVESGGGVVQPGRSLRLSCAASGFTFSSYAMHWVRQAPGKGLEWVAVISYDGSNKHYADSVKGRFTISRDNSKNTLYLQMNSLRAEDTAVYYCARDPQYCSSTSCSMGVGWFDPWGQGTLVTVSS
VL: SYELTQPPSVSVAPGKTARITCGGNNIGSKSVHWYQQKPGQAPVLVIYYDSDRPSGIPERFSGSNSGNTATLTISRVEAGDEADYYCQVWDSSSDHAYWVFGGGTKLTVL
B17: G32L7 (antibody, V domains shown)
VH: EVQLLESGGGSVQPGGSLRLSCAASGFTFSSYAMSWVRQAPGKGLEWVSVISGSGGSTYYADSVKGRFTISRDNSKNTLYLQMNSLRAEDTAVYYCAKAERITMLVVVTLIDYWGQGTLVTVSS
VL: QSVLTQPPSVSAAPGQKVTISCSGSSSNIGNNYVSWYQQLPGTAPKLLIYDNNKRPSGIPDRFSGSKSGTSATLGITGLQTGDEADYYCGTWDSSLSAVVFGGGTKLTVL
B18: C81F5 (antibody, V domains shown)
VH: QVQLVESGGGVVQPGRSLRLSCAASGFTFSNSGMHWVRQAPGKGLEWVAVISYDGSHKYYADSVKGRFTISRDNSKNTLYLQMNTLRAEDTAVYYCAKEESAVAGTGVPYYYYYYMDVWGKGTTVTVSS
VL: not shown

Where a chain is given by its changes, count along the chain named.

The results in this text go back to paper PMC8299219 (Cell, 2021).

The target of the test is SARS-CoV-2 S ectodomain trimer, prefusion-stabilized, 2P variant (Wrapp et al., 2020) (SARS-CoV-2, Wuhan-Hu-1, UniProt P0DTC2, stabilised).
Turning to B1, the binding result is reported as “binds”.

Consider B2, for which the binding result is on record as “binds”.

In the case of B3, the binding result was “binds”.

Consider B4, for which the binding result is “binds”.

Turning to B5, the binding result was “binds”.

For the molecule B6, the binding result is recorded as “binds”.

Consider B7, for which the binding result is reported as “binds”.

Take B8: the binding result is listed as “binds”.

In the case of B9, the binding result is “binds”.

Consider B10, for which the binding result is “binds”.

For the molecule B11, the binding result is “binds”.

For the molecule B12, the binding result is on record as “binds”.

In the case of B13, the binding result was “binds”.

For the molecule B14, the binding result was “binds”.

As for B15, the binding result was “binds”.

With B16, the binding result was “binds”.

With B17, the binding result is recorded as “binds”.

Regarding B18, the binding result was “binds”.
